This is an account of results in the nanobody polyreactivity screen of Harvey et al. (2022).

A short description of this data set: yeast display, Sf9 membrane polyspecificity reagent, FACS + sequencing; frameworks hold sequencing errors. The gist of the method: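 In a synthetic yeast display library (Saccharomyces cerevisiae BJ5465), nanobody expression was induced with galactose for 36–48 hours. FACS gates were set low and high (top ~1%) using anti-HA fluorescence for expression and streptavidin fluorescence for binding of the Sf9 membrane reagent. Each polyreactivity label is drawn from the gate of origin.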
For “QVQLVESVGGLAQSRGSLRLSCAASGRTFFPNAMGWYRQAPGKERELVAAITNGDSTHYADSVKRRFTISRDNAKNTVYLQMNSLKPEDTADYYCAAEDHYEGYGGYYWGQVTQVTVSS”, the “polyreactivity (PSR sort gate)” value is given as “low polyreactivity”.

“QVQLVESVGGLDQAGGSLRLSCAASGSTFSLYTIGWYRQAPGKERELVASISRGGGSTYYADSVKGRFTISRDNAKNTVYLQMNSLKPEDTAVYYCASGTLYFYSHNPEDDFDYWGQGTQVTVSS”: the “polyreactivity (PSR sort gate)” value was “high polyreactivity”.

Turning to “QVQLVESVGGLDQAGGSLRLSCAASGYTFSLNAMGWYRQAPGKEREFVATIRSSGARTSYADSVKGRFTISRDNAKNTVYLQMNSLKPEDTAVYYCAARYYNSYRYAMGYWGQGTQVTVSS”, the “polyreactivity (PSR sort gate)” value is on record as “high polyreactivity”.

As to “QVQLVESVGGLDQAGGSLRLSGAASGSIFAHYAMGWYRQAPGKETELVARISWSGGSTYYADSVKGRFTISRDNAKNTVYLQMNSLKPEDTAVYYCARAGRSWDTLYKYYLEHDYWGQGTQETVSS”, the “polyreactivity (PSR sort gate)” value is on record as “low polyreactivity”.

For the sequence “QVQLVESVGGLDQAGVSLRLSCPASVRTLSKNSMGWYRQAPGKARELVATISSVGRTNYAVSVKGRFTISRDNAKNTVYLQMKSLKREDTAVYYCDARRFRGSYYWGLGTQVTVSS”, the “polyreactivity (PSR sort gate)” value is recorded as “high polyreactivity”.

Turning to “QVQLVESVGGLLQAGGRLRLSCAASGSTFGKYVMGWYRPAPGTERELVAAISLSGGSTYYADSVKGRFTISRDNAKNTVYLQMNCRKPEDTALNYCATVGYGYDYWGQATQVTVSS”, the “polyreactivity (PSR sort gate)” value was “high polyreactivity”.

Turning to “QVQLVESVGGLLQAGGSLRLSCAASGRIFTGYAMGWYRQAPGKERELVAAISSRGGSTYYADSVKGRFTISRDNAKNTVYLQMNSLKPEDTAVYYCNAYQWRHRYTMYYWGQGTQVTVSS”, the “polyreactivity (PSR sort gate)” value was “high polyreactivity”.

With “QVQLVESVGGLVEAGGRLGISCDDSGIIFRVNTIGCYRQAPGKERELVARSTGAGNKYYADSVKGRFTISRDNAKTTVYLQMNSLKPKDTAVYYCAVREFDNRRVIFYYWGQGTQVTVLS”, the “polyreactivity (PSR sort gate)” value is reported as “high polyreactivity”.

Consider “QVQLVESVGGLVQAGASLRLSCAASGRTFATYAKGWYRQAPGKERELVAAISRSGGSTYYADSVKGRFTISRDNAKNTVYLQMHSLKPEDTAGYYCAARYVRQYYRAEDYWGQGTQVTVSS”, for which the “polyreactivity (PSR sort gate)” value was “high polyreactivity”.

“QVQLVESVGGLVQAGASLRLTCAASGSIFWYAMGWYRQAPRQERELVAGISRGGSTYYADSVKGRFTISRDNAKNTVYLQMNSLKPEDTAVYYCNTAGYYGTPSNYWGQGTQVTVSS”: the “polyreactivity (PSR sort gate)” value is “low polyreactivity”.

On to “QVQLVESVGGLVQAGGILRLSCAPSGSTFDVYAMGWYRQAPAKERELVAAISWTGGSTYYADSVKGRFTISRDNAKNTVYLQMNRLKPEDTAVYYCAAYEIQTPRIAHYVGCGRDYLGQGTQVTVSS”, for which the “polyreactivity (PSR sort gate)” value is “high polyreactivity”.

For “QVQLVESVGGLVQAGGRLRLSCAASGITFEPYAMGWYRPAPGKEREFVADITWSGGSTYYADSVKGRFTISRDNAKNTVYLQMNSLKPEDTAVYYCAADGWTSYWSDYWGQGTQVTVSS”, the “polyreactivity (PSR sort gate)” value was “low polyreactivity”.

Regarding “QVQLVESVGGLVQAGGSLPLSCDASGSIFFYYAMGWSRHAPGKESELVAAIDFNGGTTYYADSVKGRFTISRDTAKITVYLQMNSLTPEDTAVYYCAAEWEGTYSTVPDEFNYWGQGTQVTVSS”, the “polyreactivity (PSR sort gate)” value was “high polyreactivity”.

As to “QVQLVESVGGLVQAGGSLRISCAASGFIFKSYSMGWYRQAPGKERELVAAISWIGGRTYYADSVKGRFTISRDNAKYTVYLQMNSLKPEDTAVYYCAKVVKYQSGGGLEYWGQGTQVTVSS”, the “polyreactivity (PSR sort gate)” value is “high polyreactivity”.

In the case of “QVQLVESVGGLVQAGGSLRISCAASGRIFYNYAMGRYRQAPGKERELVAAISGSGGSTYYADSVKGRFTISRDIAKNTVYLQMNSLIPEDTAVFYCSTSGPQYYSRNFDYWGQGTQVTVSS”, the “polyreactivity (PSR sort gate)” value was “low polyreactivity”.

In the case of “QVQLVESVGGLVQAGGSLRLICAASGSIFSPYAMGWYRQAPGKERELVAAINFNGGTTYYADSVKGRFTISRDNAKNTVDLQMNSLKPEDTAVYYCAADEVPGFGYPPYPWFDYWGQGTQVTVSS”, the “polyreactivity (PSR sort gate)” value is recorded as “low polyreactivity”.

With “QVQLVESVGGLVQAGGSLRLSCAASGFIFAFYAMGWYRQAPGKESELVAAIRTGGSTNYADSVKGRFTISRDNAKNTVYLQMNSLKPEDTAVYYCAAYGRGGYWRWERDYWGLGTQVTVSS”, the “polyreactivity (PSR sort gate)” value is “high polyreactivity”.

On to “QVQLVESVGGLVQAGGSLRLSCAASGFIFNPYAMGWYRQAPGKERELVAAISWRGASTYYADSVKGRFTISRDNAKNTVYLQMNSLNPEDTAVYYCAADLAYSSTASDYEYWGQGTQVTVSS”, for which the “polyreactivity (PSR sort gate)” value is listed as “low polyreactivity”.

On to “QVQLVESVGGLVQAGGSLRLSCAASGFIFSYYAMGGYRQAPGKERELVAAISKTGGNTYYADSVKGRFTISRDNAKNTVYLQMNSLKPEDSAVYYCNALRGDWRDMGYWGQGTQVTVSS”, for which the “polyreactivity (PSR sort gate)” value is “high polyreactivity”.

Consider “QVQLVESVGGLVQAGGSLRLSCAASGFIFYWYAMGWYRQAPGKERELVAAITRSGGRTYYADSVKGRFTISRDNAKNTVYLQMNSLKPEDTAVYYCNAGYWLSPYKFGYWGQGTQVTVSS”, for which the “polyreactivity (PSR sort gate)” value is recorded as “high polyreactivity”.

On to “QVQLVESVGGLVQAGGSLRLSCAASGFNFRVYPMGWYRPAPRKERELVAAISVSGGSTTYADSVNGRFTISRDNAKNTVYLQMNSLKPEDTAVYYCAADYDFFSLYLYDYWGQGTQVTVSS”, for which the “polyreactivity (PSR sort gate)” value is “low polyreactivity”.

Regarding “QVQLVESVGGLVQAGGSLRLSCAASGFTFASNAMGWYRQAPGKERELVAAISRSGGSTFYADSVKGRFTISRDNAKNTVYLQMNSLKPEDTAVYYCAADIWRVYSTFYYWGQGTQVTVSS”, the “polyreactivity (PSR sort gate)” value is reported as “low polyreactivity”.

Turning to “QVQLVESVGGLVQAGGSLRLSCAASGFTFDENAMGWYSQAPGINYSGASTYYADSVKGRFTLSRDNAKNTVYLQMNSLKQEDTAVNYCAAEVVAQLNYWGPGTQVTVSS”, the “polyreactivity (PSR sort gate)” value is reported as “low polyreactivity”.

Consider “QVQLVESVGGLVQAGGSLRLSCAASGFTFFHYAMGWYRQAPGKERELVAAINTRGSRTYYADSVKGRFTISRDNAKNTVYLQMNSLKPEDTAVYYCAADSVQVYAWQYYYWGQGTQVTVSS”, for which the “polyreactivity (PSR sort gate)” value is “high polyreactivity”.

As to “QVQLVESVGGLVQAGGSLRLSCAASGFTFKYYAMGWYRQAPGKERELVAAITGTGGSTYYADSVKGRFTISRDTAKNTVYLLMNSLKPEDTAVYYCNAGSARGYVPYDSFAYDYWGQGTQVTVSS”, the “polyreactivity (PSR sort gate)” value was “low polyreactivity”.

With “QVQLVESVGGLVQAGGSLRLSCAASGFTFRANAMGWYRQAPGKERELVAAINWSGTSTYYADSVKGRFTISRDNAKNTVYLQMNSLKPEDTAVYYCAVLFYGAKYDYWGQGTQVTVSS”, the “polyreactivity (PSR sort gate)” value is “low polyreactivity”.

“QVQLVESVGGLVQAGGSLRLSCAASGFTFRYYAMGSYRQAPGKERELVAAISRTGRTYYADSVKGRFTISRDNAKNTVYLQMNSLKPEDTAVYYCAADPPGYVFGKRYYWGHGTQVTVSS”: the “polyreactivity (PSR sort gate)” value is given as “high polyreactivity”.

For “QVQLVESVGGLVQAGGSLRLSCAASGFTFSWSTKGWYRQAHAKERELVATISWSGSRTYYADSVKGRFTISRDNAKNTVYLEINSLKPEDTAVYYCNVAPHRQVFYTGQYDYWGQGTQVTVSS”, the “polyreactivity (PSR sort gate)” value is on record as “high polyreactivity”.

“QVQLVESVGGLVQAGGSLRLSCAASGFTFYKNAMGWYRQATGKERELVAPITKSGGRTYYADSVKGRFTISRDYAKNTVYLQMNCLKPEDNAVYYCAADISPFGRQPCVIRYSWGQGTQVTVSS”: the “polyreactivity (PSR sort gate)” value is reported as “high polyreactivity”.

Take “QVQLVESVGGLVQAGGSLRLSCAASGGIFQPNAMGWYRQAPGKERELVATISQRGGSPYYSDSVKGRFTISRDNAKNTVYLQMNSVKPEDTAVYYCAAEVYYYYDAIYIARYEYWGQGTQVTVSS”: the “polyreactivity (PSR sort gate)” value is recorded as “low polyreactivity”.

In the case of “QVQLVESVGGLVQAGGSLRLSCAASGGTFLFYGMGWYRQAPGKERELVAVITWSGGSTYYADSVKGRFTISRDNAKNTVYLQMKSLKPEDTAVYYCNAANTGSPDYQSIGYNFNYWGQGTQVTVSS”, the “polyreactivity (PSR sort gate)” value is “low polyreactivity”.

Consider “QVQLVESVGGLVQAGGSLRLSCAASGIFRQNAMGWYRQAPGKERELVAGISQSGGSTYYADSVKGRFTISRDNAKNTVYLQMNSLKPEDTAVYYCAVVSIWGYDYWGQGTQVTVSS”, for which the “polyreactivity (PSR sort gate)” value is reported as “low polyreactivity”.

“QVQLVESVGGLVQAGGSLRLSCAASGITFDDYAMGWYRQAPGKERELVAVISSSGGSTYYADSVKGRFTISRDNAKNTVYLQMNSLKPEDTAVYYCAARFEVWYTRRVLLGEYDYWGQGTQVTVSS”: the “polyreactivity (PSR sort gate)” value was “low polyreactivity”.

As for “QVQLVESVGGLVQAGGSLRLSCAASGLIFHRYAMGWYRQAPGKERELVAAISSSGGITYYADSVKGRFTISRDNAKNTVYLQMNSLKPVDTAVYYCPADTGKGSPFSAGLGRAGDYWGHGTQVTVSS”, the “polyreactivity (PSR sort gate)” value is given as “low polyreactivity”.

As for “QVQLVESVGGLVQAGGSLRLSCAASGNTFKYYAMGWYRQAPGKERELVAGITWTGGRTNYADSVKGRFTISRDNAKNTVYLQMNSLKPEDTAVYYCAADYWWYTGYDYWGQGTQVTVSS”, the “polyreactivity (PSR sort gate)” value was “high polyreactivity”.

For the sequence “QVQLVESVGGLVQAGGSLRLSCAASGNTLVYYDMGWYRQAPGKERELVAAISWSTGSTYYADSVKGRFTISRDNAKNTVYLQMNSLKPEDTAVYYCAAEPELDEYEHDYWGQGTQVTVSS”, the “polyreactivity (PSR sort gate)” value is reported as “low polyreactivity”.

As for “QVQLVESVGGLVQAGGSLRLSCAASGRIFGGYALGWYRQAPGKERELVAAITSSGSTNYADSVKGRFTISRDNAMNTVYLQMNSLKQEDTAVYYCANDFKTVYYWWGMDYWGQGTQVTVSS”, the “polyreactivity (PSR sort gate)” value is given as “low polyreactivity”.

Regarding “QVQLVESVGGLVQAGGSLRLSCAASGRIFGPYVMGWYRQAPGKERELVAAISTSGTSTYYADSVKGRFTISRDNAKNTDYLPMNSLKPEDTAVYYCAIRSGARHRLMDYWGQGTQVTVSS”, the “polyreactivity (PSR sort gate)” value was “low polyreactivity”.

As to “QVQLVESVGGLVQAGGSLRLSCAASGRIFLYYAIGWYRQAPGKERELVAVISWSGGSTYYADSVKGRFTISRDNAKNTVYLQMNILKPEDTAVYYCAADVVPTWYGYNYDYWGQGTQVTVSS”, the “polyreactivity (PSR sort gate)” value is “high polyreactivity”.

“QVQLVESVGGLVQAGGSLRLSCAASGRIFPAYAMGWYRQAPGKERELVASIRRGGITYADSVKGRFTISRDNAKNTVYLQMKSLKPEDTAVYYCNADYRGWGYHMDYWGQGTQVTVSS”: the “polyreactivity (PSR sort gate)” value was “low polyreactivity”.

For the sequence “QVQLVESVGGLVQAGGSLRLSCAASGRIFYLYAMGWYRQEPGKERELVAVISYGGDRTSYADSVKGRFTISRDNAKNTVYLQMNSLKPEDTAVYYCAARPFYRGYYYWGQGTQVTVSS”, the “polyreactivity (PSR sort gate)” value is “high polyreactivity”.
